Measured values: patent US20220306734A1 (H LUNDBECK A S, published 2022)

What was measured:
[1] = target: T1, human mGluR1 extracellular domain (human-mGluR1-ECD) (human, UniProt Q13255 19-592, limits assumed); experiment: HTRF, soluble ECD
T1 construct: ECD construct made 'in a similar fashion' to the human mGluR5 one; also called hu-mGluR1
Protocol: (§1) Binding of antibodies to mGluR5/mGluRJ measured via Homogeneous Time-Resolved Fluorescence (HTRF). Binding assays were performed using HTRF reagents from CisBio. Ten microliters of an antibody dilution series (highest final concentration of 30 nM) was incubated with 10 μl of mGluR-ECD (10 nM final concentration) in HTRF buffer (50 mM Phosphate buffer pH7, 0.8M KF (potassium fluoride), 0.2% BSA). Twenty microliters of Europium-labeled anti-hu-Fc donor (2 nM final concentration, CisBio Catalog No. 61HFCKLB) and 20 μl of XL665-labeled anti-Flag acceptor (60 nM final concentration, CisBio Catalog No. 61FG2XLB) were added to each well and incubated for 1 hour at room temperature. Alternatively, the antibody dilution series was incubated with 10 μl of biotinylated mGluR-ECD (10 nM final concentration), and 20 μl of Europium-labeled anti-hu-Fc donor (2 nM final concentration) and 20 μl of d2-labeled streptavidin acceptor (60 nM final concentration, CisBio Catalog No. 610SADLB) were added to each well. Fluorescence was measured at 620 and 665 nm with a delay of 300 μsec. Results were expressed as the ratio of signal at 665 nm over 620 nm. EC₅₀ values were calculated for binding of Ab1-Ab23 to human-mGluR5-ECD, of Ab1-Ab21 to rat-mGluR5-ECD, and of Ab1, Ab2 and Ab4-Ab12 to monkey-mGluR5-ECD and to human-mGluR1-ECD (TABLE 1).

[2] = target: T2, cynomolgus monkey mGluR5 extracellular domain (monkey-mGluR5-ECD) (cynomolgus monkey, UniProt P41594 21-580 (human entry), limits assumed); experiment: HTRF, soluble ECD
T2 construct: ECD construct made 'in a similar fashion' to the human one; also called cyno-mGluR5
T2 sequence (P41594 other isoform, or with tags, fused parts or gaps limits assumed): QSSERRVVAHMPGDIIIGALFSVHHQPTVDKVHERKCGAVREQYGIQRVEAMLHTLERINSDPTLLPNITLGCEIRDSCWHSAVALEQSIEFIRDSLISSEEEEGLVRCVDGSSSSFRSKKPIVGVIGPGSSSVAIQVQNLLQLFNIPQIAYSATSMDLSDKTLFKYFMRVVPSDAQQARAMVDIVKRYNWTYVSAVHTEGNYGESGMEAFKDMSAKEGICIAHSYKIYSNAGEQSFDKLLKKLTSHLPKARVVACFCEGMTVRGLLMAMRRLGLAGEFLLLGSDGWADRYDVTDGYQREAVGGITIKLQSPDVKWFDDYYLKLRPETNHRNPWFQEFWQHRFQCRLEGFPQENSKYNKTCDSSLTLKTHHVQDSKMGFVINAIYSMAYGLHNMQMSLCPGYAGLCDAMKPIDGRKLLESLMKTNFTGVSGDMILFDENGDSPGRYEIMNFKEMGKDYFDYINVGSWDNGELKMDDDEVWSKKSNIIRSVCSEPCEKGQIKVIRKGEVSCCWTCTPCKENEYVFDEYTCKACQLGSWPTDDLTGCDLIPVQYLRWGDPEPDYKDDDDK
Protocol: as §1

[3] = target: T3, rat mGluR5 extracellular domain (rat-mGluR5-ECD) (rat, UniProt P31424 21-504); experiment: HTRF, soluble ECD
T3 construct: ECD construct made 'in a similar fashion' to the human one
T3 sequence (P31424 other isoform, or with tags, fused parts or gaps limits assumed, form in doubt): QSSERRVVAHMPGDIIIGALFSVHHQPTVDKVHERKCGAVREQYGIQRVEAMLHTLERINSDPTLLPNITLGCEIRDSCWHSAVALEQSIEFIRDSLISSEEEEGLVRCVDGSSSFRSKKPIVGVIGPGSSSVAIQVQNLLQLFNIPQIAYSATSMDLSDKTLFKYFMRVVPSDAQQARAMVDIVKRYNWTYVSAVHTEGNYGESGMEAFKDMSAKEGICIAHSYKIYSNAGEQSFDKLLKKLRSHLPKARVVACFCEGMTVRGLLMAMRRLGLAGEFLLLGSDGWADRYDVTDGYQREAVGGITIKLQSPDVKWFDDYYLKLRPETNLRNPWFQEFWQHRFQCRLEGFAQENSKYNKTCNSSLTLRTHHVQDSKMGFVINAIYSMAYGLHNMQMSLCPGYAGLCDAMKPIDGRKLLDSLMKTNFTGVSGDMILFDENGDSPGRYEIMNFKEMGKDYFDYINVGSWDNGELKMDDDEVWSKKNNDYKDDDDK
Protocol: as §1

[4] = target: full-length (FL) human mGluR5 on BA/F3-mGluR5 clone 10C9 cells (human) (UniProt P41594); experiment: flow cytometry, BA/F3-mGluR5 10C9 cells; high end tied to Ab4 by Table 2
[5] = target: full-length (FL) human mGluR5 on BA/F3-mGluR5 clone 10C9 cells (human) (UniProt P41594); experiment: flow cytometry, BA/F3-mGluR5 10C9 cells, 10 ug/ml antibody
[6] = target: human mGluR5 extracellular domain (human-mGluR5-ECD) (human) (UniProt P41594); experiment: HTRF, soluble ECD
human mGluR5 extracellular domain (human-mGluR5-ECD) (human), sequence (P41594 other isoform, or with tags, fused parts or gaps): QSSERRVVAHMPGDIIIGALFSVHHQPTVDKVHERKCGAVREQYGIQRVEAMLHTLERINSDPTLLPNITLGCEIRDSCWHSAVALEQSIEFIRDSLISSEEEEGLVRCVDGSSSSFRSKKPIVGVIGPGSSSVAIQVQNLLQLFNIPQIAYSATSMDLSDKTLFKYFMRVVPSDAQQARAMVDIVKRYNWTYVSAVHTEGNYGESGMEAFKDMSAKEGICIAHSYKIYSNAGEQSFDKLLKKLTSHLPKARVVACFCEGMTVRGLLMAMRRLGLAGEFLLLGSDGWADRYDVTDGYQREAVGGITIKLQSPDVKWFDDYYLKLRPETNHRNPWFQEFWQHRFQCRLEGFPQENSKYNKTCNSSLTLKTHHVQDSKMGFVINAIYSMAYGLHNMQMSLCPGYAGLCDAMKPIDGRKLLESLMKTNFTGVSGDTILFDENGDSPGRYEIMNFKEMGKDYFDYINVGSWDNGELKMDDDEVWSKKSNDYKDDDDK

[7] = target: full-length (FL) human mGluR5 on BA/F3-mGluR5 clone 10C9 cells (human) (UniProt P41594); experiment: cell-based or functional assay
[8] = target: human mGluR5 extracellular domain (human-mGluR5-ECD) (human) (UniProt P41594); experiment: HTRF, soluble ECD; remark: listed apart in the source
[9] = target: human mGluR5 extracellular domain (human-mGluR5-ECD) (human) (UniProt P41594); experiment: AlphaLISA, biotinylated ECD
[10] = target: human mGluR5 extracellular domain (human-mGluR5-ECD) (human) (UniProt P41594); experiment: AlphaLISA, biotinylated ECD; remark: listed apart in the source
[11] = target: full-length (FL) human mGluR5 on BA/F3-mGluR5 clone 10C9 cells (human) (UniProt P41594); experiment: flow cytometry, BA/F3-mGluR5 10C9 cells; low end tied to Ab22 by Table 2

T1 sequence (Q13255 other isoform, or with tags, fused parts or gaps limits assumed): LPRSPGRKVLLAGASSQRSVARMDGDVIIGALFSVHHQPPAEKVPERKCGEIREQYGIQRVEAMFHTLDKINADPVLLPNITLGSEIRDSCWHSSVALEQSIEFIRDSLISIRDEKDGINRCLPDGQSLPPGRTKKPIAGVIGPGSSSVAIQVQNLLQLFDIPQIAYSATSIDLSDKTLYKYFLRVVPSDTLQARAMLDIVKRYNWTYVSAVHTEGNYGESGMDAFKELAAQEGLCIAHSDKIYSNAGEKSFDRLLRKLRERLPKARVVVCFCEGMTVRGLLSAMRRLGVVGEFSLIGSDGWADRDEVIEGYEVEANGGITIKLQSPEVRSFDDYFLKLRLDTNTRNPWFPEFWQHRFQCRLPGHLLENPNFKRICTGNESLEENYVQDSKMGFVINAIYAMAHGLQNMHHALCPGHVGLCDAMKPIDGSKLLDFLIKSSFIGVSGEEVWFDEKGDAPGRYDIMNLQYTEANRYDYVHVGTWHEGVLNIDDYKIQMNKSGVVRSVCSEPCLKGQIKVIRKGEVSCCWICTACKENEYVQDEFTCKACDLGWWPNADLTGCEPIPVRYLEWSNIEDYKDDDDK

binding result [1]	EC50 [2]	EC50 [3]	fold signal over background [4]	mGluR5 (FL) cell binding-fold over background [5]	EC50 [6]	pERK Assay Inhibition IC50-nM [7]	EC50 [8]	EC50 [9]	EC50 [10]	fold signal over background [11]	Binder
no binding	0.286 nM	0.332 nM	10 to 42 fold	41.8 fold	0.293 nM	0.34 nM	< 2 nM	–	–	–	mGluR5 Ab4 (antibody, V domains shown, Rabbit variable regions on human heavy and light chain constant regions (chimeric)) VH: QQQLEESGGGLVKPGGTLTLTCKGSGIDFNDYQYMCWVRQAPGKGLEWIACIYNGDGETYYAHWAKGRFTISKTSSTTVTLQMTSLTAADTATYFCARGSGVGSYGYNFWGPGTLVTVSS VL: DIVMTQTPASVEAAVGGTVTIKCQASESIYSNLAWYQQKAGQPPKLLIYRASNLASGVPSRFKGSGSGTEFTLTISDLECADAATYYCQGYYASTVTNGFGGGTEVVVKR
–	–	–	–	39.6 fold	–	0.09 nM	–	< 2 nM	0.0891 nM	–	mGluR5 Ab29 (antibody, V domains shown) VH: QQQLEESGGGLVKPGGTLTLTCKASGIDFSSYHYMCWVRQAPGKGLEWIACIYNGDGDTYYASWAKGRFTISKTSSTTVTLQMTSLTAADTATYFCARGSGVGSYGYNLWGPGTLVTVSS VL: DIVMTQTPASVEAAVGGTVTIKCQASENIYSNLAWYQQKPGQPPKLLIYRASNLESGVPSRFKGSGSGTEFTLTISDLECDDAATYYCQGYYPSAVTNAFGGGTEVVVKR
–	–	–	–	10.9 fold	0.439 nM	8.33 nM	< 2 nM	–	–	10 to 42 fold	mGluR5 Ab22 (antibody, V domains shown) VH: QSLEESGGDLVKPGASLTLTCTASGFSFSTSYYMCWVRQAPGKGLEWIGCIHTSTFSTWYASWAKGRFTISKTSSTTVTLQMTSLTAADTATYFCARRDAYNYAGYAYNLWGQGTLVTVSS VL: DVVMTQTPASVSAAVGGTVTINCQASEDIYSNLAWYQQKPGQPPKLLIYGASTLASGVPSRFKGSGSGTEFTLTISDLECADAATYYCQCTFGCFSGSSNNIFGGGTEVVVKR
